Assay results taken from patent US20210206866A1 (EUCURE BEIJING BIOPHARMA, published 2021).

T1: mouse OX40 on transfected CHO cells (mouse, UniProt P47741 20-272)
T1 construct: also called mOX40
T1 sequence: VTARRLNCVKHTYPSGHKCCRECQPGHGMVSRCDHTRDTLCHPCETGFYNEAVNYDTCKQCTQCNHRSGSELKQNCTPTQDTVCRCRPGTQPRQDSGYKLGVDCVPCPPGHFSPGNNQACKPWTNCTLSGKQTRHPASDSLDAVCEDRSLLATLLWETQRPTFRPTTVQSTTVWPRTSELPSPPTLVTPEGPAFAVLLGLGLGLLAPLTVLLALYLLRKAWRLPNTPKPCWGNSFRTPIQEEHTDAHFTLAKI

T2: Human OX40 protein (hOX40-His) (human, UniProt P43489 29-214)
T2 construct: Soluble analyte in the SPR assay; also called His-tagged human OX40; not shown: His tag
T2 sequence: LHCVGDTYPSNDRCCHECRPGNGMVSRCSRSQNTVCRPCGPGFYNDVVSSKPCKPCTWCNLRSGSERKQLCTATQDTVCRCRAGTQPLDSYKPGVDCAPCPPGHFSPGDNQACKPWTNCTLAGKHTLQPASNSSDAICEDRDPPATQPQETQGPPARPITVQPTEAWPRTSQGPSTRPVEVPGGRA


Target: T1, mouse OX40 on transfected CHO cells
Assay: flow cytometry, CHO-mOX40 cells; anti-mIgG Fc-FITC against SSC-H
Experimental: 25 ul CHO cells were added to each well. 25 ul purified anti-hOX40 antibodies (1 ug/ml) (9H3 or “07-9H3”) were added to each well and were incubated at 4° C. for 30 minutes.
After being washed with PBS (1200 rmp, 5 min) twice, 50 ul of anti-mouse IgG Fc antibody fluorescein isothiocyanate conjugate (anti-mIgG Fc-FITC) with 1:500 dilution was added into each well and was incubated at 4° C. for 30 minutes, followed by PBS wash (1200 rmp, 5 min). The signals for FITC were determined by flow cytometry.

binding result	Binder
no binding	mouse anti-hOX40 antibody 07-9H3 (antibody, V domains shown, Mouse IgG purified from ascites fluid) VH: QVQLKQSGPGLVQPSQSLSITCTVSGFSLTSYGVLWVRQPPGKGLEWLGVIWSGGSTDYNAAFISRLSISKDNSKSQVFFKMNSLQADDTAIYYCAREEFGYWGQGTLVTVSA VL: DIQMTQTTSSLSASLGDRVTISCRASQDINNYLNWYQQKPDGTVKLLIYYTSRLHSGVPSRFSGSGSGTDYSLTISNLEQEDIATYFCQQTNTLPWTFGGGTKLEIK

Target: T2, Human OX40 protein (hOX40-His)
Assay: SPR, Biacore T200, antibody captured on Protein A chip, hOX40-His as analyte, 1:1 Langmuir fit
Experimental: The antibodies were tested for hOX40 binding. The affinity of an antibody was determined by surface plasmon resonance (Biacore T200 biosensor, Biacore, INC, Piscataway N.J.) equipped with pre-immobilized Protein A sensor chips.
Anti-hOX40 antibody 9H3-mHvKv-IgG1 (1 μg/mL) were injected into Biacore T200 biosensor at 10 μL/min for 25 seconds to achieve to a desired protein density (about 112 response units (RU)). […] Dissociation was monitored for 300 seconds. The chip was regenerated after the last injection of each titration with Glycine (pH 2.0, 30 μL/min for 12 seconds).
The same method with necessary appropriate adjustments for parameters (e.g., concentrations of the antibodies) were performed for all other tested antibodies.

Binder	Kd [nM]	koff [s⁻¹]	kon [M⁻¹ s⁻¹]
9A4 (mouse antibody) (antibody, V domains shown, also called 07-9A4) VH: EVQLQQFGAELVKPGASVKISCKASGYTFTDYNMDWVKQSHGKSLEWIGDINPNYDSTSYNQKFKGKATLTVDKSSSTAYMELRSLTSEDTAVYYCARGGYGNYVDYFDYWGQGTTLTVSS VL: NIVMTQSPKSMSMSVGERVTLSCKASENVVTYVSWYQQKPEQSPKLLIYGASNRYTGVPDRFTGSGSATDFTLTISSVQAEDLADYHCGQSYSYPYTFGGGTKLEIK	21.6	0.00192	89100
9H3-H2K2-IgG1 (antibody, V domains shown, Humanized, with human IgG1 constant domains; also called 9H3 humanized antibody H2K2) VH: QVQLVESGGGVVQPGRSLRISCAVSGFSLTSYGVLWVRQAPGKGLEWVAVIWSGGSTDYNAAFISRLTISRDNSKSTVYFQMNSLRAEDTAVYYCAREEFGYWGQGTLVTVSS VL: DIQMTQSPSSLSASVGDRVTITCRASQDINNYLNWYQQKPGGAVKLLIYYTSRLHSGVPSRFSGSGSGTDFTLTISSLQPEDIATYYCQQTNTLPWTFGGGTKLEIKR	3.84	0.00087	227000
9H3-H2K3-IgG1 (antibody, V domains shown, Humanized, with human IgG1 constant domains; also called 9H3 humanized antibody H2K3) VH: QVQLVESGGGVVQPGRSLRISCAVSGFSLTSYGVLWVRQAPGKGLEWVAVIWSGGSTDYNAAFISRLTISRDNSKSTVYFQMNSLRAEDTAVYYCAREEFGYWGQGTLVTVSS VL: DIQMTQSPSSLSASVGDRVTITCRASQDINNYLNWYQQKPGGAVKLLIYYTSRLHSGVPSRFSGSGSGTDYTLTISSLQPEDIATYFCQQTNTLPWTFGGGTKLEIKR	1.55	0.000393	254000
9H3-H3K2-IgG1 (antibody, V domains shown, Humanized, with human IgG1 constant domains; also called 9H3 humanized antibody H3K2) VH: QVQLVESGGGVVQPGRSLRISCAVSGFSLTSYGVLWVRQAPGKGLEWLGVIWSGGSTDYNAAFISRLTISRDNSKSTVYFQMNSLRAEDTAVYYCAREEFGYWGQGTLVTVSS VL: DIQMTQSPSSLSASVGDRVTITCRASQDINNYLNWYQQKPGGAVKLLIYYTSRLHSGVPSRFSGSGSGTDFTLTISSLQPEDIATYYCQQTNTLPWTFGGGTKLEIKR	3.34	0.000642	192000
9H3-H3K3-IgG1 (antibody, V domains shown, Humanized, with human IgG1 constant domains; also called 9H3 humanized antibody H3K3) VH: QVQLVESGGGVVQPGRSLRISCAVSGFSLTSYGVLWVRQAPGKGLEWLGVIWSGGSTDYNAAFISRLTISRDNSKSTVYFQMNSLRAEDTAVYYCAREEFGYWGQGTLVTVSS VL: DIQMTQSPSSLSASVGDRVTITCRASQDINNYLNWYQQKPGGAVKLLIYYTSRLHSGVPSRFSGSGSGTDYTLTISSLQPEDIATYFCQQTNTLPWTFGGGTKLEIKR	1.92	0.000451	235000

The next lines start with the values.

Kd [nM]	koff [s⁻¹]	kon [M⁻¹ s⁻¹]	Binder
55.3	0.00669	121000	9A4-mHvKv-IgG1 (antibody, V domains shown, Chimeric: mouse 9A4 variable domains with human IgG1 constant domains; also called 9A4 chimeric antibody) VH: EVQLQQFGAELVKPGASVKISCKASGYTFTDYNMDWVKQSHGKSLEWIGDINPNYDSTSYNQKFKGKATLTVDKSSSTAYMELRSLTSEDTAVYYCARGGYGNYVDYFDYWGQGTTLTVSS VL: NIVMTQSPKSMSMSVGERVTLSCKASENVVTYVSWYQQKPEQSPKLLIYGASNRYTGVPDRFTGSGSATDFTLTISSVQAEDLADYHCGQSYSYPYTFGGGTKLEIK
3.35	0.000748	223000	9H3-H2K1-IgG1 (antibody, V domains shown, Humanized, with human IgG1 constant domains (CL, CH1, CH2, CH3); also called 9H3 humanized antibody H2K1) VH: QVQLVESGGGVVQPGRSLRISCAVSGFSLTSYGVLWVRQAPGKGLEWVAVIWSGGSTDYNAAFISRLTISRDNSKSTVYFQMNSLRAEDTAVYYCAREEFGYWGQGTLVTVSS VL: DIQMTQSPSSLSASVGDRVTITCRASQDINNYLNWYQQKPGGAVKLLIYYTSRLHTGVPSRFSGSGSGTDFTLTISSLQPEDIATYYCQQTNTLPWTFGGGTKLEVKR
2.49	0.000606	244000	9H3-H3K1-IgG1 (antibody, V domains shown, Humanized, with human IgG1 constant domains; also called 9H3 humanized antibody H3K1) VH: QVQLVESGGGVVQPGRSLRISCAVSGFSLTSYGVLWVRQAPGKGLEWLGVIWSGGSTDYNAAFISRLTISRDNSKSTVYFQMNSLRAEDTAVYYCAREEFGYWGQGTLVTVSS VL: DIQMTQSPSSLSASVGDRVTITCRASQDINNYLNWYQQKPGGAVKLLIYYTSRLHTGVPSRFSGSGSGTDFTLTISSLQPEDIATYYCQQTNTLPWTFGGGTKLEVKR
29.8	0.00163	54900	5C1-mHvKv-IgG1 (antibody, V domains shown, Chimeric: mouse 5C1 variable domains with human IgG1 constant domains; also called 5C1 chimeric antibody) VH: EVQLQQSGTVLARPGASVKMSCKASGYSFTSYWMHWVKQRPGQGLEWIGTIYPGNSDTSNNQKFKGKAKLTAVTSASTAYMELSSLTNEDSAVYYCTTFYYRYEDYYAMDYWGQGTSVTVSS VL: DIVMTQSHKFMSTSVGDRVSITCKASQDVNTAVAWYQQKPGQSPKLLIYSASYRYTGVPDRFTGSGSGTDFTFTISSVQAEDLAVYYCQQHYSTPFTFGSGTKLEIK
2.31	0.000594	258000	9H3-mHvKv-IgG1 (antibody, V domains shown, Chimeric: mouse 9H3 variable domains with human IgG1 constant domains (CL, CH1, CH2, CH3); also called 9H3 chimeric antibody; chimeric anti-hOX40 antibody) VH: QVQLKQSGPGLVQPSQSLSITCTVSGFSLTSYGVLWVRQPPGKGLEWLGVIWSGGSTDYNAAFISRLSISKDNSKSQVFFKMNSLQADDTAIYYCAREEFGYWGQGTLVTVSA VL: DIQMTQTTSSLSASLGDRVTISCRASQDINNYLNWYQQKPDGTVKLLIYYTSRLHSGVPSRFSGSGSGTDYSLTISNLEQEDIATYFCQQTNTLPWTFGGGTKLEIK
46.5	0.0147	317000	5D10-mHvKv-IgG1 (antibody, V domains shown, Chimeric: mouse 5D10 variable domains with human IgG1 constant domains; also called 5D10 chimeric antibody) VH: QVQLKESGPGLVAPSQSLSITCTVSGFSLTSYGVHWIRQPPGKGLEWLGVIWAGGNTNYNSALMSRLSISKDNSKSQVFLKMNSLQTDDTAMYNCASYDGYYGWFAYWGQGTLVTVSV VL: DIQMTQTTSSLSASLGDRVTISCRASQDISYYLNWYQQKPDGTVKLLIYYTSRLHSGVPSRFSGSGSGTDYSLTISNLEQEDIATYFCQQGHTLPWTFGGGTKLEIK

Target: chimeric (mouse and human) OX40 on transfected CHO cells (chimeric (mouse and human))
Assay: flow cytometry, CHO-chiOX40 cells; antibody at 1 ug/ml; anti-mIgG Fc-FITC (x axis) against SSC-H; NC panel of the same cells 2.78%

% of cells in the anti-mouse-IgGFc-FITC positive gate [%]	Binder
33.9	mouse anti-hOX40 antibody 07-9H3 (antibody, V domains shown, Mouse IgG purified from ascites fluid) VH: QVQLKQSGPGLVQPSQSLSITCTVSGFSLTSYGVLWVRQPPGKGLEWLGVIWSGGSTDYNAAFISRLSISKDNSKSQVFFKMNSLQADDTAIYYCAREEFGYWGQGTLVTVSA VL: DIQMTQTTSSLSASLGDRVTISCRASQDINNYLNWYQQKPDGTVKLLIYYTSRLHSGVPSRFSGSGSGTDYSLTISNLEQEDIATYFCQQTNTLPWTFGGGTKLEIK
